Assay results: patent US20240424167A1
No end group written: not given here.

Legend:
[1] = target: type III collagen of the SIS membrane; assay: CLSM, SIS membrane soaked in 200 µM chimeric peptide solution (H-pSIS)
[2] = target: type I collagen of the SIS membrane; assay: as above

B1: P11 polypeptide (KELNLVY+linker-1+Hst1) (peptide)
peptide: KELNLVYGGGGSGGGGSSHREFPFYGDYGS
modifications: also: fluorescent label rhodamine B or FITC (paragraphs differ), position not given here
- fluorescent area of the SIS membrane [1]: > 85%

B2: P10 polypeptide (TKKTLRT+linker-1+JH8194) (peptide)
peptide: TKKTLRTGGGGSGGGGSKRLFRRWQWRMKKY
modifications: also: fluorescent label FITC or rhodamine B (paragraphs differ), position not given here
- fluorescent area of the SIS membrane [2]: > 85%

B3: P9 polypeptide (TKKTLRT+linker-1+Hst1) (peptide)
peptide: TKKTLRTGGGGSGGGGSSHREFPFYGDYGS
modifications: also: fluorescent label FITC or rhodamine B (paragraphs differ), position not given here
- fluorescent area of the SIS membrane [2]: > 85%

B4: P12 polypeptide (KELNLVY+linker-1+JH8194) (peptide)
peptide: KELNLVYGGGGSGGGGSKRLFRRWQWRMKKY
modifications: also: fluorescent label rhodamine B or FITC (paragraphs differ), position not given here
- fluorescent area of the SIS membrane [1]: > 85%
